Measured values reported in the domain aggregation screens of Martell et al. (2025).

Test: soluble fraction after stress (log2 fold change); higher = more stays soluble; pooled small domains, quantitative proteomics
Details: stress: 50 degC
Method in brief: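 The measure of aggregation propensity here is the base-two logarithm of the fold change in the soluble amount of each protein after stress. A higher value means more of that protein stays in solution. Stress was applied at 50°C to pooled libraries of small protein domains, read out by high-throughput quantitative proteomics.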

Sequence | soluble fraction (log2)
HMRAAFEHLTIGQTVSGLVKSQARGVSLVEIEGQTVAMRLPQPVAVGDTLRLRFAGHMPQPVFLLDT | -0.132
HMRGRFGNAAPARNLGDHPQGGAINVKAGRYGPYVSWGKVNATLPKDSDPEKVTLEEAVALIAAKQSGQG | -0.103
HMIEESTVPDLKGKSQEDAIKLLEDANLKYQIVEEESKKIEAGYVISQETDANKKVNAGDTVIIHVST | 0.295
HMKNIMRQWIELEPDQGKIRSKLYSLDRVVEETTNEVGMIKLLLEIDEKELNNLVSHNDIRLV | -0.21
HMSQIDLQIGHKIKSKRRKLGISQADMAKKLYISPSYLNLIESGKRKINVDLLLKLSNELGIEMSDIS | -0.478
HMKAGRNTLARQMAILEVLQKDGRALVDDLAARFETTPQTIRKDLSALAEVNQISRFHGGAALVG | -0.0796
HMFTEIMAERNALIQAIQQNLPPQHIQSILSKKNKFRLEDLTNEELRDVWQWILNQRQAQQHQQQ | -0.171
HMQAGNAVEQYPTIGRLEEVTLGRSQPGAPIGERLSTLETVVFKRNFNDDSLFDRTERLKKTILGG | 0.0575
HMTYVSVSNYIGTNVDKAKGELESQGLVVLLEEQKTEDKSQDGMVLKQTIEGGTKVSSGSRITLIYGRYT | 0.197
HMAELTTVQAADILHVSRPFLIKLLDEGQIPYHRVGKHRRIRMEDVMNYKRAIDQQREAVLDQLVAEA | -0.0408
HMGAAFITSSKDNAINIRQSANTDSKVIETVTNGQILESNEKSGEWHKVTYYDNDIKKSFTGYVHEGQLK | 0.125
HMGDLVKGKVVGYDPDNVIVDIGAKTNALVPNREAVVEAGDDIKETLKKGNEYEFLIIRDEDEEGEFL | 0.29
HMAVKLELYRVFKEVAETGNISAAAKNLYISQSAVSQSIKQLETALQARLFARSPRGVTLTGEGQMLYQYV | -1.44
HMSAPLKELGNDPESGKPIVVKDGRFGAYVTDGETNATLRKTDAVESLTPERAAELLAEKRAKG | 0.168
HMQQIEIEEPITVKNLSAVAGLKASEIIAKLMKLGVMSTINQVMERQHAEEIAGEYGFELVVK | 0.096
HMVITDPFFLEPENLVKDAVALMEKYRISGVPITKKGKLVGILTNRDLRFESNYEQPIANVMS | -0.0305
HMHKKQEVQDSIDAAEEFMRASGVPAELITSKRAYAVKAIYADAVDKGTPDEIVKKDGMIVALISQMRS | 0.267
HMGLIAPMPGQIRSVAVSVGDVVKKGQTLLTMEAMKMEIRIQALKDGRVTALHAAQGQTVEGEQILIEVE | -0.000533
HMLPVYSITEAAERLDIPASTIKWYADRFASYISPSKGKGRKRFTPEDLATLQKIHELSQDHTTEEAEAML | -0.281
HMHYALTVDFPAALEARIDPAHRAALRGVLAHDPRPSYQSDPERLYGVAFAGKNVKFTVEDGVLTVRKIEE | 0.0218
HMQESVTVSAQALRRLLEKGDGDAALLYLALLRHHGTIQPRALAGELRWERPRIEAAEEALRQMGLIA | -0.0318
HMNVGKYILTLAAKEGYSQSDVARRTGISRQMLSYIIAGERKLTLPQALKIESLLSLKTGTLILMQDED | -3.41
HMDSNISVSEALEMVDKGSVKEIIVEGEKLYITNQDGKQYTSSKEVGVSLIELMKDSGIDPIKSDVNIIVK | 0.214
HMPDAIPLETIIKNVNVLAGFLINSKTFTEDDIVMAYNNIMKIKGDHTDEKTLTNDVYTLLTEMN | -0.469
HMKSSYSGNFKQNVVEYMHNNHLSATETANHFKLGGGSVVLRWERIYYEEGPQALYEERRGR | -1.7
HMTPDLSEFKERLRQILPGEPIEVRTANDGIVLSGTVTSIAALDRALDLAERYAPDKVSNLLSVG | 0.0882
HMSDIPEGYMSRVQLGDEWGIHLATFDKAVIAVKEKLGTVVFIDKSNNTTAGYSPEQQTIIYDWLAEN | -1.82
HMGVGVKSTEVDYQRTSSGSDIPTDDAAWTKTIPAVKVNTFLWTRTKINYTDGTSAIFYSVGY | -0.281

Sequence | soluble fraction (log2)
HMLGKEVVRAYNISYAIDDKGSLQGDLTAALTGLIPLSKPPVLDQRNRSLYVTATPEQHKDVAALLAKL | -0.171
HMDSILSIVGGEESYKALLAWAENNISQQELQQLETILKSGNVPAIKRVLVTLMNRFNQAQS | -0.147
HMADIWDLLRSEYKLTETDVRMLTDMLPDELMNDFRSEVLALRDRMNRYKVNNPKSYVVTSLKNFIIQHTP | -0.263
HMIGHIGSAVMLNAKLRPRLPLLHVLALTQSLGERLSAAEAQPEVYRWSDPGQSRVIAEFEGGRLTRWRLE | -2.09
HMAMPQPVARALHRLGQDISAARRMRRLSQEDLAQRIGTSLSTVRRMEDGYPGTALHTFLRALHML | -0.261
HMYDPVNEIGRVLKKIRQERSLTLDNVAEITGVSKTMLGQIERGVSVPTISVLWKIAKGLQVSLSTLLNE | -0.826
HMEKILSYKALMNDAGKRIDQFLANNEKDISRTRIKSLILEGSLKLDNNIINDPSYKIKENDVFTLFIPEA | -0.429
HMRSSAATMFGRIALKNKLVDEATLKKVMSELPAGADLGAVLVKQGLISEQHAEAIQKKITAHMKSAP | 0.273
HMRRLGTTEIAGILRREISQGILIAKERLPSERSLADTYGVARGTVRQALNLLAREGLVQIRRSSGAYVTF | -0.33
HMNADAIVGRTGVVTEAIAADGFGRVQIDGDSWKAKASGNNGIDVGAKVRVLRIDSIILTVEK | 0.0422
HMEAGTEYVERAADYIRSHFQEDLTVSKLALYVGLNRSYLTTVFQNTLHVSPQQFLMRFRMERAAQLLD | 0.0719
HMLPDSQLMKEATAWFMRQAADDFSGAERRRLDAWRAQSPAHARAYHQVQALWNAPELQQAAAR | -0.0227
HMQKDYKTRLQEYYAKVGKKVNYMDSSTGPDHDKKFQTQVFLDKEIIGVGEGKSKKSSQQEAAKQALEKI | 0.338
HMNINTEMEKVSYSLGVNIASSLKQQGWELDAKSLSDAFVDVFNGNKLLIDEKEASSILQNYQQKIANK | -0.144
HMTSLQDLLEELRVIRETLTGSQVLSDMQLFSQLRNLGDIKAALTRMQDNPAAARMVGEVDKLLETMFAS | -0.955
HMPANLTPDYFKAEQWYRSASTNEEKMLALEQMLAVMPKHKGTEHLQADLKRKLSQLKDASAQ | 0.148
HMDIINLADNIARLRRRRQITQEELADYLGVTKAAVSKWENRQTMPDILLLPRLAGLFEVTIDELVGY | -1.42
HMRELPKRPEIRYAAGDRVFHKAFGNGLVKQVAQTAGGARVTVDFGEGKGVKTFAGDAPMIKI | 0.342
HMEKALEVKYQKMVELLGDQSTFYVDEVKKIFPEMKKSSLYWNMSKLVEGGYLRRIRNGVYAFNE | -0.48
HMSPRAIYVTTSDLNMRMQPSPNAYKRGVAPRGTELLVVEWGDDWSKVIFEGDTAYAASRYLSYVKDEP | -0.487
HMPAVTEQTKTNLRRAFWQLYEQKPIQKITVKQITDLAGYNRGTFYLYFKDVYDLLDDIENK | -0.704
HMHRTRNAERTRAAVLKAAAEVLAERGTGASLARIAEVAGVSKSGLLHHFANREQLIVALLED | -0.984
HMEETGFYIKLQDQEVVIFHNDQVTPYEYTGIREEVLPESELEKLREGFFVEDEKELYSVLENLS | -0.142
HMSDPTDRLVLEAALKALGEEERQVVLLHAASGLKHREIARDLGLPLSTVLSRYSRALKKLQRYLTEEGVH | -0.77
HMQSTVSTHQKTLALDTAQSGIPVFPVSSTHKRPLTDHGYKDATADADAVRKIWQQFPSAFV | 0.0922
HMYIEKTAYINDTAVNVRKSATTDSDVIKVLALNTEITIIGEENDWYKVKSGNDIGYIAKRLVSDQKKE | 0.0858
HMNPIDAHVGARVRLRRMLIGMSQEKLGELLGVTFQQIQKYEKGANRIGASRLYEVSRVLDVPVQYFFDDM | -3.47
